Test results reported in article PMC9811684 (2023).

Experiments:
Experiment in all cases: multimer staining
[1] = biological target: T1, SARS-CoV-2 spike protein (SPIKE) peptide on HLA-A*24:02 (human)
T1 peptide: QYIKWPWYIW

[2] = biological target: T2, SARS-CoV-2 spike protein (SPIKE) peptide on HLA-A*23:01 (human)
T2 peptide: QYIKWPWYIW

[3] = biological target: T3, SARS-CoV-1 spike protein peptide on HLA-A*24:02 (human)
T3 peptide: QYIKWPWYVW

[4] = biological target: T4, 229E spike protein peptide on HLA-A*24:02 (human)
T4 peptide: TYIKWPWWVW

[5] = biological target: T5, OC43 spike protein peptide on HLA-A*24:02 (human)
T5 peptide: YYVKWPWYVW

[6] = biological target: T6, NL63 spike protein peptide on HLA-A*24:02 (human)
T6 peptide: NYIKWPWWVW

[7] = biological target: T7, HKU1 spike protein peptide on HLA-A*24:02 (human)
T7 peptide: MYVKWPWYVW

Measured: binding result

B1: TCRQYI (TCR)
alpha TRAV20*01 TRAJ32*01 CDR3: CAALNYGGATNKLIF
beta TRBV4-3*01 TRBJ2-7*01 CDR3: CASSPSGGAYEQYF
recognises: [1] | [2] | [3] | [4] | [5] | [6] | [7]
